The numbers were not newly measured in PMC4961565, which cites them from elsewhere.

One may read the pKa as the pH at which an ionisable group is half protonated.

The target of this series is Asp309 (UniProt position 309, LIAAPDTMSVS). The series is described as follows: other.

“Cytochrome P450 19A1 (aromatase) (Homo sapiens)”: the pKa is 8.2.
